The target in experiment [1] is His-tagged ECTV vCD30 protein (vCD30His) (Ectromelia virus (ECTV)). Description: non-reducing SDS-PAGE; purified vCD30His from baculovirus; data not shown.
In experiment [2] the target is endogenous vCD30 protein secreted during ECTV infection (Ectromelia virus (ECTV Naval.Cam)). The experiment in a line: non-reducing SDS-PAGE and Western blot. For orientation: A western blot detects proteins with antibodies after separation by electrophoresis.

In experiment [1], “His-tagged ECTV vCD30 protein (vCD30His) (natural protein)” showed a stoichiometry N of 3.

In the case of “endogenous vCD30 protein secreted during ECTV infection (natural protein)”, in experiment [2], the stoichiometry N was determined as 3.

For orientation: stoichiometry N means the number of molecules, sites or subunits per partner or assembly.

For the origin of these results see article PMC2664468.
